Reference: paper PMC10620216

Biological target: anti-StrepTagII pentameric IgM with J-chain
Test: mass photometry; Refeyn OneMP, in PBS, measurement concentrations typically around 5–20 nM, recorded for 120 s; oligomeric state of the antibody in solution

percent (m/m) of IgM in pentameric configuration: 85 % (m/m)
stoichiometry N: 5
B1: anti-StrepTagII pentameric IgM with J-chain (antibody, V domains shown)
VH: EVQLEQSGPELVKPGASVKMSCKASGYTFTNYYMKWVKQSHGKSLEWIGDLNPNNGDTFYNQKFKGKATLTVDKSSNTAYMQLNSLTSEDSAVYYCARTGRYEENAMDYWGQGTSVTVSS
VL: ELVMTQSPASLAVSLGQRATISCRASESVDSYGKSFMHWYQLKPGQPPKLLIYRASNLESGVPARFSGSGSRTDFTLTIDPVEADDAATYYCQQNNEDPWTFGGGTKLEIK
